From US20250296971A1, “GASTRIC INHIBITORY PEPTIDE RECEPTOR LIGANDS” (priority 2021, published 2025)
*1 amine or outer side, *2 acyl side, *3 side chain or, on linkers, in order; H or OH if unused. Bridges are numbered along the chain shown (N, C = ends). Primed or numbered codes have the meaning given here. Where no end group is shown, it is not given here. Side-chain parts run from the residue outwards. [ ]: non-standard residue; d: D form. The star is where a group is joined. Ttds = 1,13-diamino-4,7,10-trioxatridecan-succinamic acid, NCCCOCCOCCOCCCNC(=O)CCC(=O)*; NH(1-deoxy-D-glucityl) = OC[C@@H](O)[C@@H](O)[C@H](O)[C@@H](O)CN*; Pro(trans-4-NH2) = O=C([C@@H]1C[C@@H](N[*:3])CN1[*:1])[*:2]; DOTA = O=C(O)CN1CCN(CC(=O)O)CCN(CC(=O)*)CCN(CC(=O)O)CC1; MeO2kDaPEGAc = polydisperse 2 kDa PEG (methoxy, acetyl); 2Lut = 2,6-lutidylidene bridge between two thiols; Trp(5-Br) = N[C@@H](Cc1c[nH]c2ccc(Br)cc12)C(=O)O; Trp(5-Cl) = N[C@@H](Cc1c[nH]c2ccc(Cl)cc12)C(=O)O; Pyridine(2,6-diCH2) = c1cc(C[*:1])nc(C[*:2])c1; Trp(6-F) = N[C@@H](Cc1c[nH]c2cc(F)ccc12)C(=O)O; 2Lut″ = 2,6-lutidylidene linking two thiols; APAc = 4-amino-1-carboxymethylpiperidine; Pro(3S-OH) = O=C(O)[C@H]1NCC[C@@H]1O; mXylylene = c1cc(C[*:1])cc(C[*:2])c1; Glutaryl = O=C(CCCC(=O)[*:2])[*:1]; Hyp = O=C(O)[C@@H]1C[C@@H](O)CN1; Cysteamide = C(CS[*:3])N[*:1]; dGlu(AGLU) = not defined here; Suc = O=C(CCC(=O)[*:2])[*:1]; αMeS = C[C@](N)(CO)C(=O)O; Api = NC1(C(=O)O)CCNCC1; Thp = NC1(C(=O)O)CCOCC1; AEEA = NCCOCCOCC(=O)O; Aib = CC(C)(N)C(=O)O; Sar = CNCC(=O)O

Target: human Gastric Inhibitory Peptide Receptor (human) (UniProt P48546)
Assay: FACS competition with GIP-057 on CHO-K1-hGIPR cells; pIC50 category A: >8.0

{DOTA-Ttds}-D[Trp(6-F)][Trp(5-Cl)]PE[dL]C[Aib]LI[Cysteamide] (linker 7-11 via mXylylene) [DOTA-Ttds-Asp-6Fw-5Clw-Pro-Glu-leu-[Cys(3MeBn)-Aib-Leu-Ile-AET]]
pIC50: > 8 pic50

Ac-DW[Trp(5-Cl)][Pro(trans-4-NH2)]E[dL]C[Api](DOTA)LIC-NH2 (linker 7-11 via 2Lut″) [Ac-Asp-Trp-5Clw-Tap-Glu-leu-[Cys(2Lut)-Apc(DOTA)-Leu-Ile-Cys]-NH2]
pIC50: > 8 pic50

B1: DOTA-Ttds-Asp-Trp-5Clw-Pro-Glu-leu-[Cys(3MeBn)-Ams-Leu-Ile-AET] (peptide)
peptide: {DOTA-Ttds}-DW[Trp(5-Cl)]PE[dL]C[αMeS]LI[Cysteamide]
modifications: linker (positions not given here) via mXylylene; not fully specified (bridges); printed as DOTA-Ttds-Asp-Trp-5Clw-Pro-Glu-leu-[Cys(3MeBn)-Ams-Leu-Ile-AET]
pIC50: > 8 pic50

MeO2kDaPEGAc-DW[Trp(5-Cl)][Hyp]E[dL]C[Thp]LIC-{dK(DOTA)-NH2} (linker 7-11 via Pyridine(2,6-diCH2)) [MeO2kDaPEGAc-Asp-Trp-5Clw-Hyp-Glu-leu-[Cys(2Lut)-Thp-Leu-Ile-Cys]-lys(DOTA)-NH2]
pIC50: > 8 pic50

{DOTA-Ttds}-DW[Trp(5-Cl)][Pro(3S-OH)]E[dL]C[Aib]LI[Cysteamide] (linker 7-11 via mXylylene) [DOTA-Ttds-Asp-Trp-5Clw-H3p-Glu-leu-[Cys(3MeBn)-Aib-Leu-Ile-AET]]
pIC50: > 8 pic50

{DOTA-dGlu(AGLU)-AEEA}-DW[Trp(5-Cl)][Pro(trans-4-NH2)]E[dL]C[Api]([Glutaryl-NH(1-deoxy-D-glucityl)])LIC-{APAc-dGlu(AGLU)-NH2} (linker 7-11 via 2Lut; reading uncertain)
pIC50: > 8 pic50

Suc-W[Trp(5-Cl)][Hyp]E[dL]C[Thp]LIC-{Lys(DOTA)-NH2} (linker 6-10 via Pyridine(2,6-diCH2)) [HO-Succinyl-Trp-5Clw-Hyp-Glu-leu-[Cys(2Lut)-Thp-Leu-Ile-Cys]-Lys(DOTA)-NH2]
pIC50: > 8 pic50

{DOTA-Ttds}-D[Trp(6-F)][Trp(5-Br)]PE[dL]C[Aib]LI[Cysteamide] (linker 7-11 via mXylylene) [DOTA-Ttds-Asp-6Fw-5Brw-Pro-Glu-leu-[Cys(3MeBn)-Aib-Leu-Ile-AET]]
pIC50: > 8 pic50

B2: DOTA-Ttds-Asp-Trp-5Clw-Nmg-Glu-leu-[Cys(3MeBn)-Aib-Leu-Ile-AET] (peptide)
peptide: {DOTA-Ttds}-DW[Trp(5-Cl)][Sar]E[dL]C[Aib]LI[Cysteamide]
modifications: linker (positions not given here) via mXylylene; not fully specified (bridges); printed as DOTA-Ttds-Asp-Trp-5Clw-Nmg-Glu-leu-[Cys(3MeBn)-Aib-Leu-Ile-AET]
pIC50: > 8 pic50

W[Trp(5-Cl)][Hyp]E[dL]C[Thp]LIC-{dK(DOTA)-NH2} (linker 6-10 via 2Lut; not fully specified (N-terminus)) [HO-Succinyl-Trp-5Clw-Hyp-Glu-leu-[Cys(2Lut)-Thp-Leu-Ile-Cys]-lys(DOTA)-NH2]
pIC50: > 8 pic50

Ac-DW[Trp(5-Cl)][Hyp]E[dL]C[Api](DOTA)LIC-NH2 (linker 7-11 via Pyridine(2,6-diCH2)) [Ac-Asp-Trp-5Clw-Hyp-Glu-leu-[Cys(2Lut)-Apc(DOTA)-Leu-Ile-Cys]-NH2]
pIC50: > 8 pic50
